Assays:
[1] = target: APE1Dead (catalytically dead APE1) (human, UniProt P27695 1-318, D210N;E96Q); assay: competition; FRET; DNA pre-saturated with 75 nM Cy5-RPA; APE1Dead completely exchanges for RPA; EMSA: 50 mM Tris pH 8, 1 mM EDTA, 0.2 mg/ml BSA, 1 mM DTT, 5% sucrose, room temperature, 5 nM DNA; FRET: 20 mM HEPES pH 7.5, 150 mM KCl, 5 mM MgCl2, 5 mM CaCl2, 1 mM DTT, ionic strength 200 mM with KCl, 23 C; conditions: protein: recombinant; label: Cy3 at primer 3' end; 3' recessed primer-template junction, 5' ssDNA overhang 33 nt
APE1Dead (catalytically dead APE1), sequence (P27695 whole entry E96Q/D210N): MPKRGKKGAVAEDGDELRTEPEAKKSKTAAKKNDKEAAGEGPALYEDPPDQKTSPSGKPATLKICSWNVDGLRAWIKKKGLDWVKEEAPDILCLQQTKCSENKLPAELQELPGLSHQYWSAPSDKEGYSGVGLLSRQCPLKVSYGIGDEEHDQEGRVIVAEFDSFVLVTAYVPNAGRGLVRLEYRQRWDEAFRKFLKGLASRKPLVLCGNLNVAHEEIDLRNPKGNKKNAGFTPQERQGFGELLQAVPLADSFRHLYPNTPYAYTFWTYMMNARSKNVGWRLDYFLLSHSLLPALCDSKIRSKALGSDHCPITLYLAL

[2] = target: RPA (RPA1/RPA2/RPA3 heterotrimer) (human, UniProt P27694;P15927;P35244 1-616;1-270;1-121); assay: mass photometry; 4:1 RPA:DNA; a single RPA per DNA; EMSA: 50 mM Tris pH 8, 1 mM EDTA, 0.2 mg/ml BSA, 1 mM DTT, 5% sucrose, room temperature, 5 nM DNA; FRET: 20 mM HEPES pH 7.5, 150 mM KCl, 5 mM MgCl2, 5 mM CaCl2, 1 mM DTT, ionic strength 200 mM with KCl, 23 C; conditions: protein: recombinant; copies: 1;1;1
RPA (RPA1/RPA2/RPA3 heterotrimer), sequence (P27694 whole entry, chain 1 of 3): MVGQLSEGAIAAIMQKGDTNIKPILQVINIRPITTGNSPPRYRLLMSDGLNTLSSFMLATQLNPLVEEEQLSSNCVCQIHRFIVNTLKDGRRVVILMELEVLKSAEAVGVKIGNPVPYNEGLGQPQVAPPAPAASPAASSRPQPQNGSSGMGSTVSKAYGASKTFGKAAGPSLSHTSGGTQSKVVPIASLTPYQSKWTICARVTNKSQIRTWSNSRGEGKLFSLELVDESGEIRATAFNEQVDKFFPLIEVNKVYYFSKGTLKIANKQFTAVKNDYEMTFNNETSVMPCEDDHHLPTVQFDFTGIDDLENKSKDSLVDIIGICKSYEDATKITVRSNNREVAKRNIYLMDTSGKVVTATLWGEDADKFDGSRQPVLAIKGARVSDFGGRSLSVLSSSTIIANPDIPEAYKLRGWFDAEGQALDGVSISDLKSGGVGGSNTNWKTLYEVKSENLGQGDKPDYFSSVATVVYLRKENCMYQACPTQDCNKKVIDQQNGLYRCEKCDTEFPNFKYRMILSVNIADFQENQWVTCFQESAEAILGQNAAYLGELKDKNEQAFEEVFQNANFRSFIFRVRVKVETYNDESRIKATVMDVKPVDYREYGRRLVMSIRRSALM
RPA (RPA1/RPA2/RPA3 heterotrimer), sequence (P15927 whole entry, chain 2 of 3): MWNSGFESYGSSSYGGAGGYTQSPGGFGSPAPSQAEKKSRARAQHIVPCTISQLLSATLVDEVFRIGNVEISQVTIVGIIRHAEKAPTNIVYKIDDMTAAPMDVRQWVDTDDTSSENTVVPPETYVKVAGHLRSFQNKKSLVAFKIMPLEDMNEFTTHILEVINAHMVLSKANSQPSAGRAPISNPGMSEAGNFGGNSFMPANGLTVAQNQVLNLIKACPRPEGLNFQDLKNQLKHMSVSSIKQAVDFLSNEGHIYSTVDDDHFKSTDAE
RPA (RPA1/RPA2/RPA3 heterotrimer), sequence (P35244 whole entry, chain 3 of 3): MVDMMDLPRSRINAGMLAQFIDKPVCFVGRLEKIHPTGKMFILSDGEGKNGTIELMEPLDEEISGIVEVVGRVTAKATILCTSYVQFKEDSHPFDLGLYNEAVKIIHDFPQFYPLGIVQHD

B1: Cy3-Rec-PTJ (mixed)
DNA 1: ACTCCTTCCGCACGTAATTTTTGACGCAC
DNA 2: TGACTCTTCTGCGTTCGCTGATGCGCCGACGGGTGCGTCAAAAATTACGTGCGGAAGGAGT
modifications: THF 7 nt from the junction
binding result [1]: binds

TTTTTTTTTTTTTTTTTTTTTTTTTTTTTTTTTTT (ssDNA) [(dT)35]
binding result [2]: binds
